Laboratory results reported in article PMC9886975, “Ligand recognition mechanism of the human relaxin family peptide receptor 4 (RXFP4)” (Nature Communications, 2023).
Ends that are not written are not given here.

What was measured:
RXFP4 = settings: R23^BA ref 34; R23^BE ref 35; cited from earlier work
Source text: Despite these advances, difficulties in obtaining sufficient quantities of native INSL5 hampered our efforts in further exploring the biology of the peptide and its cognate receptor. […] In addition to peptidic analogs, small molecule modulators have been reported in recent years. […] The N-terminal residues (R5^B to L9^B) adopted a loop that is clasped by a short N-terminal α-helix of the A chain through one disulfide bond (C8^A‒C7^B). W24^B contributed massive polar and nonpolar interactions to stabilize the peptide binding via both side chain indole and the carboxylic acid group. The former made a hydrogen bond with T121^3.32 (superscripts denote Ballesteros–Weinstein numbering[32]), as well as cation- ...

[1] = target: T1, human RXFP4 stably expressed on CHO-K1 cells (hRXFP4-CHO) (human, UniProt Q8TDU9 1-374); assay: cell-based or functional assay
[2] = target: human RXFP4 H299A mutant (human) (UniProt Q8TDU9)
[3] = target: T1, human RXFP4 stably expressed on CHO-K1 …; assay: competitive binding of a europium-labelled ligand on cells (time-resolved fluorescence); CHO-K1 cells stably transfected with RXFP4 on poly-L-lysine 96-well plates; 5 nM Eu-R3/I5 with increasing amounts of ligand; one-site binding curve; settings: one partner purified

T1 sequence (Q8TDU9 whole entry): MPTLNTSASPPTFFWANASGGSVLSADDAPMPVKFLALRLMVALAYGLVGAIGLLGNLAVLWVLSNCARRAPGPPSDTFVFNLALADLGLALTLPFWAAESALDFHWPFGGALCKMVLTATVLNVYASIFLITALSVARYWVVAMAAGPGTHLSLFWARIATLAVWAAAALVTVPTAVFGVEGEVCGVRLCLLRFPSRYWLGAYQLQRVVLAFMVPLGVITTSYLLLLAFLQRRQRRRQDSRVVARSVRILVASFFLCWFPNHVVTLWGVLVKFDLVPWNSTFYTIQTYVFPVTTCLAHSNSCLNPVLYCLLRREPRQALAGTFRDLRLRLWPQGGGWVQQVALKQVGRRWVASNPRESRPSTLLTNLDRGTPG
Chain of human RXFP4 H299A mutant (human) (Q8TDU9 whole entry H299A): as the sequence (Q8TDU9 whole entry) above, with H299A counted along it

inhibition of forskolin-induced cAMP responses in CHO-K1 cells stably transfected with RXFP4 (pEC50) [1] | INSL5-induced cAMP response in HEK293T cells transfected with the mutant receptor: reduction of Emax against wild type [2] | pKi [3] | Molecule | potency of R23^B mutant vs INSL5 (RXFP4)
– | – | – | R23^BA: INSL5 with R23^B replaced by alanine (Insulin-like peptide INSL5 B … KESVRLCGLEYIRTVIYICASSAW; Insulin-like peptide INSL5 A … QDLQTLCCTDGCSMTDLSALC; disulfide (positions not given here); ends not checked; also: three disulfide bonds, places not given here; UniProt Q9Y5Q6 23-46; Q9Y5Q6 115-135, looked up, variant R23A) | reduced potencies
8.8 | 70% | 8.19 | recombinant two-chain human insulin-like peptide 5 (INSL5) (ligand) chain 1: QDLQTLCCTDGCSMTDLSALC chain 2: KESVRLCGLEYIRTVIYICASSRW | –
